Conditions: Lithobates pipiens, MES 100 mM, reversible: yes, whole UniProt chain shown; for unfolding free energy / denaturant m value / denaturant midpoint (higher = more stable): 25 °C

B1: Protein P-30 wild type, P22069 (protein)
chain: QDWLTFQKKHITNTRDVDCDNIMSTNLFHCKDKNTFIYSRPEPVKAICKGIIASKNVLTTSEFYLSDCNVTSRPCKYKLKKSTNKFCVTCENQAPVHFVGVGSC
pH 2, Thermal, DSC
  unfolding free energy: 8.84 kcal/mol
  Tm: 69.5 °C
  heat capacity change of unfolding: 1.48 kcal/mol/K
  unfolding enthalpy (calorimetric): 102 kcal/mol
  unfolding enthalpy (van 't Hoff): 105 kcal/mol
pH 2.5, Thermal, DSC
  unfolding free energy: 9.54 kcal/mol
  Tm: 72.6 °C
  heat capacity change of unfolding: 1.31 kcal/mol/K
  unfolding enthalpy (calorimetric): 105 kcal/mol
  unfolding enthalpy (van 't Hoff): 104 kcal/mol
pH 3, Thermal, DSC
  unfolding free energy: 10.8 kcal/mol
  Tm: 76.5 °C
  heat capacity change of unfolding: 1.43 kcal/mol/K
  unfolding enthalpy (calorimetric): 112 kcal/mol
  unfolding enthalpy (van 't Hoff): 110 kcal/mol
pH 3.5, Thermal, DSC
  unfolding free energy: 12.2 kcal/mol
  Tm: 81.6 °C
  heat capacity change of unfolding: 1.36 kcal/mol/K
  unfolding enthalpy (calorimetric): 120 kcal/mol
  unfolding enthalpy (van 't Hoff): 118 kcal/mol
pH 4, Thermal, DSC
  unfolding free energy: 13.5 kcal/mol
  Tm: 86.8 °C
  heat capacity change of unfolding: 1.24 kcal/mol/K
  unfolding enthalpy (calorimetric): 125 kcal/mol
  unfolding enthalpy (van 't Hoff): 127 kcal/mol
pH 5, Thermal, DSC
  unfolding free energy: 14.1 kcal/mol
  Tm: 88.3 °C
  heat capacity change of unfolding: 1.53 kcal/mol/K
  unfolding enthalpy (calorimetric): 129 kcal/mol
  unfolding enthalpy (van 't Hoff): 132 kcal/mol
pH 6, GdnHCl, CD
  denaturant m value: 3.13 kcal/mol/M
  denaturant midpoint (higher = more stable): 4.5 M
  unfolding free energy: 14.1 kcal/mol
pH 6, GdnHCl, Fluorescence
  denaturant m value: 3.08 kcal/mol/M
  denaturant midpoint (higher = more stable): 4.5 M
  unfolding free energy: 13.9 kcal/mol
pH 6, Thermal, DSC
  unfolding free energy: 14.2 kcal/mol
  Tm: 88.7 °C
  heat capacity change of unfolding: 1.31 kcal/mol/K
  unfolding enthalpy (calorimetric): 129 kcal/mol
  unfolding enthalpy (van 't Hoff): 128 kcal/mol
pH 7, Thermal, DSC
  unfolding free energy: 13.7 kcal/mol
  Tm: 87.8 °C
  heat capacity change of unfolding: 1.43 kcal/mol/K
  unfolding enthalpy (calorimetric): 127 kcal/mol
  unfolding enthalpy (van 't Hoff): 123 kcal/mol
pH 8, Thermal, DSC
  unfolding free energy: 13 kcal/mol
  Tm: 85.4 °C
  heat capacity change of unfolding: 1.39 kcal/mol/K
  unfolding enthalpy (calorimetric): 123 kcal/mol
  unfolding enthalpy (van 't Hoff): 127 kcal/mol
